Measurements reported in patent publication US20210347873A1 (SHANGHAI PHARMAEXPLORER, published 2021).
Where two headings read alike, the source gives them in different places.

B1: h8E7D9C7F5-1 (antibody, V domains shown)
VH: EVQLVQSGAEVKKPGASVKVSCKASGYTFTSYGISWVRQAPGQGLEWMGEIYPRSGNTYYNEKFKGRVTMTTDTSTSTAYMELRSLRSDDTAVYYCARSGPITTLVATDYGMDYWGQGTTVTVSS
VL: DIVMTQSPDSLAVSLGERATINCRASKSVSTSSYSYMHWYQQKPGQPPKLLIKFASNLESGVPDRFSGSGSGTDFTLTISSLQAEDVAVYYCQHSREFPYTFGGGTKVEIK
notes: Humanized antibody; also called humanized BLyS antibody h8E7D9C7F5 variant 1 (VH.1 / Vk.1)
B2: 2-1G11 (antibody, V domains shown)
VH: EVQLVESRGGVVQPGRSLRLSCAASGFTFSSYGMHWVRQAPGKGLEWVAVISYDGSNKYYADSVKGRFTISRDNSKNTLYLQMNSLRAEDAAVYYCARDRVDILTGYSIYGMDVWGQGTTVTVSS
VL: EIVMTQSPATLSLSPGERATLSCRASQSVSSYLAWYQQKPGQAPRLLIYDASKRATGIPARFSGSGSGTDFTLTISSLEPEDFAVYYCQQRSNWPLTFGGGTKVEIK
B3: c35E6F7C3 (antibody, V domains shown)
VH: EVQLQQSGAELVKPGASVKLSCTAAGFNIQDTYIHWVKQRPEQGLEWIGRIDPANANTVYDPKFQGKATITADTSSNTAYLQVSSLTSEDTAVYYCASPVITAGFAYWGQGTLVTVSA
VL: QIVLTQSPAIMSASPGEKVTMTCGASSSVNYVHWYQQKSGTSPKRWIYDTSKLASGVPARFSGSGSGTSYSLTISSMEAEDAATYYCQQWTRSPLTFGAGTKVELK
B4: h97A3C2H4-9 (antibody, V domains shown)
VH: EVQLVESGGGLVQPGGSLRLSCAASGFTFSTYTMSWVRQAPGKRLEWVAYISYGGGSTSYPDTVKGRFTISRDNAKNSLYLQMNSLRAEDTAVYYCTRHVTVVENSMDYWGQGTTVTVSS
VL: DILLTQSPDFQSVTPKEKVTITCRASQSIGTSIHWYQQKTDQSPKLLIKYVSESFSGTPSRFSGSGSGTDFTLTINSLEAEDAATYYCQQTHSWPWTFGGGTKVEIK
notes: Humanized antibody; VH3-7/JH6 CDR-grafted with A93T, G44R; also called humanized BLyS antibody h97A3C2H4 variant 9 (VH.1b / Vk.1d)

Assays:
biotinylated hBLyS-ECD [1] = target: T1, biotinylated hBLyS-ECD (human, UniProt Q9Y275 134-285, biotinylated with Biotin-X-X-NHS (molar ratio 7:1); sites not stated); experiment: ELISA on captured biotinylated hBLyS-ECD; antibody 0.534 nM
T1 construct: also called biotinylated immunogen; biotinylated hBLvS-ECD
T1 sequence (Q9Y275 134-285): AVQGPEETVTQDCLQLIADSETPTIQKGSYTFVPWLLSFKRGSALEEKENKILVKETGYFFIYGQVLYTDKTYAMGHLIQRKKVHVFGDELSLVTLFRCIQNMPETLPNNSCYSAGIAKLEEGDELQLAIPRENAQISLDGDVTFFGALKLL

biotinylated hBLyS-ECD [2] = target: T1, biotinylated hBLyS-ECD; experiment: ELISA on captured biotinylated hBLyS-ECD; antibody 2.67 nM
biotinylated hBLyS-ECD [3] = target: T1, biotinylated hBLyS-ECD; experiment: BAFF R-coated ELISA, biotinylated hBLyS-ECD bound in presence of antibody 0.0064 nM
biotinylated hBLyS-ECD [4] = target: T1, biotinylated hBLyS-ECD; experiment: ELISA on captured biotinylated hBLyS-ECD; antibody 0.0213 nM
biotinylated hBLyS-ECD [5] = target: T1, biotinylated hBLyS-ECD; experiment: ELISA on captured biotinylated hBLyS-ECD; antibody 0 nM (background)
biotinylated hBLyS-ECD [6] = target: T1, biotinylated hBLyS-ECD; experiment: BAFF R-coated ELISA, biotinylated hBLyS-ECD bound in presence of antibody 20 nM
[7] = target: T2, extracellular domain of human BLyS protein (hBLyS-ECD), His-tagged, Ala134-Leu285 (human, UniProt Q9Y275 134-285); experiment: SPR (Biacore), antibody captured by anti-human Fc, hBLyS-ECD as analyte
T2 construct: Expressed in HEK293 cells and purified on a Ni column; also called immunogen
T2 sequence (Q9Y275 134-285): as above
Method: Affinity constants were determined using a Biacore X100 instrument (purchased from GE Healthcare). Detailed operations and methods referred to the instrument manuals and detailed methods provided by manufacturers, specifically: determining affinity constant using a CM5 chip (Sensor Chip CM5, purchased from GE Healthcare). […] Then 1 M ethanolamine was injected in chip to block the remaining activation sites. After the antibody to be tested (i.e., the human BLyS antibody prepared by Embodiment 2) was captured by chip, 7 different gradient of immunogen dilutions (i.e., hBLyS-ECD) prepared by Embodiment 1 were injected and the binding and dissociation of antigen with antibody was detected by a Biacore instrument. The dissociation constant and binding constant were then fitted by Biacore X100 Evaluation Software 2.0, while the affinity constant was the ratio of dissociation constant to binding constant.
The binding and dissociation between antibody and antigen was detected by Biacore.

biotinylated hBLyS-ECD [8] = target: T1, biotinylated hBLyS-ECD; experiment: BAFF R-coated ELISA, biotinylated hBLyS-ECD bound in presence of antibody 0.16 nM
biotinylated hBLyS-ECD [9] = target: T1, biotinylated hBLyS-ECD; experiment: BAFF R-coated ELISA, biotinylated hBLyS-ECD bound in presence of antibody 100 nM
biotinylated hBLyS-ECD [10] = target: T1, biotinylated hBLyS-ECD; experiment: BAFF R-coated ELISA, biotinylated hBLyS-ECD bound in presence of antibody 4 nM
biotinylated hBLyS-ECD [11] = target: T1, biotinylated hBLyS-ECD; experiment: BAFF R-coated ELISA, biotinylated hBLyS-ECD bound in presence of antibody 0 nM
biotinylated hBLyS-ECD [12] = target: T1, biotinylated hBLyS-ECD; experiment: ELISA on captured biotinylated hBLyS-ECD; antibody 0.107 nM
biotinylated hBLyS-ECD [13] = target: T1, biotinylated hBLyS-ECD; experiment: ELISA on captured biotinylated hBLyS-ECD; antibody 0.00427 nM
biotinylated hBLyS-ECD [14] = target: T1, biotinylated hBLyS-ECD; experiment: ELISA on captured biotinylated hBLyS-ECD; antibody 66.7 nM
biotinylated hBLyS-ECD [15] = target: T1, biotinylated hBLyS-ECD; experiment: BAFF R-coated ELISA, biotinylated hBLyS-ECD bound in presence of antibody 0.8 nM
biotinylated hBLyS-ECD [16] = target: T1, biotinylated hBLyS-ECD; experiment: ELISA on captured biotinylated hBLyS-ECD; antibody 13.3 nM
biotinylated hBLyS-ECD [17] = target: T1, biotinylated hBLyS-ECD; experiment: BAFF R-coated ELISA, biotinylated hBLyS-ECD bound in presence of antibody 0.032 nM
[18] = target: T2, extracellular domain of human BLyS …; experiment: cell-based or functional assay
[19] = target: T2, extracellular domain of human BLyS …; experiment: SPR (Biacore), antibody captured by anti-human Fc, hBLyS-ECD as analyte; remark: listed apart in the source

Binder | OD450 nm (biotinylated hBLyS-ECD [1]) [OD450 nm] | OD450 nm (biotinylated hBLyS-ECD [2]) [OD450 nm] | OD450 nm (biotinylated hBLyS-ECD [3]) [OD450 nm] | OD450 nm (biotinylated hBLyS-ECD [4]) [OD450 nm] | OD450 nm (biotinylated hBLyS-ECD [5]) [OD450 nm] | OD450 nm (biotinylated hBLyS-ECD [6]) [OD450 nm] | Kd [7] [nM] | koff [7] [s⁻¹] | kon [7] [M⁻¹ s⁻¹] | OD450 nm (biotinylated hBLyS-ECD [8]) [OD450 nm] | OD450 nm (biotinylated hBLyS-ECD [9]) [OD450 nm] | OD450 nm (biotinylated hBLyS-ECD [10]) [OD450 nm] | OD450 nm (biotinylated hBLyS-ECD [11]) [OD450 nm] | OD450 nm (biotinylated hBLyS-ECD [12]) [OD450 nm] | OD450 nm (biotinylated hBLyS-ECD [13]) [OD450 nm] | OD450 nm (biotinylated hBLyS-ECD [14]) [OD450 nm] | OD450 nm (biotinylated hBLyS-ECD [15]) [OD450 nm] | OD450 nm (biotinylated hBLyS-ECD [16]) [OD450 nm] | OD450 nm (biotinylated hBLyS-ECD [17]) [OD450 nm] | Proportion of B lymphocytes in splenocytes (%), in vivo in mice [18] [%] | other results
B1 | 1.88 | 2.18 | 1.98 | 0.499 | 0.129 | 0.721 | 4.33 | 0.000942 | 218000 | 1.78 | 0.45 | 1.11 | 2.05 | 1.35 | 0.195 | 2.3 | 1.54 | 2.2 | 1.87 |  | 
B2 |  |  |  |  |  |  |  |  |  |  |  |  |  |  |  |  |  |  |  | 25.6 | 
B3 |  |  |  |  |  |  |  |  |  |  |  |  |  |  |  |  |  |  |  | 30.5 | Kd [19]: 1.45 nM; koff [19]: 0.000277 s⁻¹; kon [19]: 190000 M⁻¹ s⁻¹
B4 | 1.88 | 2.24 | 1.96 | 0.372 | 0.198 | 0.748 | 1.88 | 0.000216 | 115000 | 1.81 | 0.506 | 1.13 | 1.94 | 1.02 | 0.179 | 2.37 | 1.56 | 2.27 | 1.98 |  | 
